Substitutions are numbered along the chain they refer to. Where two headings read alike, the source gives them in different places.
Assays:
[1] = molecular target: Env of TH023.6.I181L virus (HIV-1); assay: cell-based or functional assay
[2] = molecular target: Env of 703357.2.Q169K virus (HIV-1); assay: cell-based or functional assay
Env of 703357.c02 virus = Env of 703357.c02 virus (HIV-1); assay: cell-based or functional assay
[3] = molecular target: Env of 703357.2.Q169KR170Q virus (HIV-1); assay: cell-based or functional assay
[4] = molecular target: Env of 703357.2.I181L virus (HIV-1); assay: cell-based or functional assay
[5] = molecular target: Env of 427299.c12.H81L virus (HIV-1); assay: cell-based or functional assay
Env of AE.CM244 virus = Env of AE.CM244 virus (HIV-1); assay: cell-based or functional assay
[6] = molecular target: Env of CM244NW.6.I181L virus (HIV-1); assay: cell-based or functional assay
[7] = molecular target: Env of 427299.c12.Q169K virus (HIV-1); assay: cell-based or functional assay
[8] = molecular target: Env of 92TH023 K169Q virus (HIV-1); assay: cell-based or functional assay
Env of 427299.c12 virus = Env of 427299.c12 virus (HIV-1); assay: cell-based or functional assay
[9] = molecular target: Env of 703357.2.Q169KR170QI181L virus (HIV-1); assay: cell-based or functional assay
[10] = molecular target: Env of 703357.2.Q169KI181L virus (HIV-1); assay: cell-based or functional assay
[11] = molecular target: Env of 427299.c12.KL.Q169K/I181L virus (HIV-1); assay: cell-based or functional assay
[12] = molecular target: Env of CM244NW.4.K169Q virus (HIV-1); assay: cell-based or functional assay
Env of AE.92TH023 virus = Env of AE.92TH023 virus (HIV-1); assay: cell-based or functional assay
C.CAP206 gp140CF.12 = C.CAP206 gp140CF.12 (HIV-1); assay: ELISA
AE.A244 gp120 delta 11 [13] = molecular target: T1, AE.A244 gp120 delta 11 (HIV-1); assay: ELISA
T1 construct: also called E.A244gp120Δ11; AE.A244 Δ11 gp120

C.1086 V1V2 Tags [14] = molecular target: C.1086 V1V2 Tags (HIV-1); assay: ELISA
gp70 C.1086 V1/V2 [15] = molecular target: T2, gp70 C.1086 V1/V2 (HIV-1 V1V2 on murine leukemia virus gp70); assay: ELISA
T2 construct: also called C.gp70 1086C V1V2; C.1086gp70V1V2
T2 chain: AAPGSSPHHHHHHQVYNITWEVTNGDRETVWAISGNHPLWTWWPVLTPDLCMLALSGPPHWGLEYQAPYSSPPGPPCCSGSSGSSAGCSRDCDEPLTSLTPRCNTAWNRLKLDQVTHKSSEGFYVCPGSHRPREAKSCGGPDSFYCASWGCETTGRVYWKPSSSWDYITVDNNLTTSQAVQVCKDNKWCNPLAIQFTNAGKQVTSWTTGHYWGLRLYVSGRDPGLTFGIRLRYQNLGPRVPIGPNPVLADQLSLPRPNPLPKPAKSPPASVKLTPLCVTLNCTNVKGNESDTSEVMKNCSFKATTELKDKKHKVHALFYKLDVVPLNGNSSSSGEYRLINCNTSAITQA

AE.A244 V1V2 Tags [16] = molecular target: AE.A244 V1V2 Tags (HIV-1); assay: ELISA
AE.A244 gp120 delta 11 [17] = molecular target: T1, AE.A244 gp120 delta 11; assay: ELISA; remark: listed apart in the source
C.1086 V1V2 Tags [18] = molecular target: C.1086 V1V2 Tags (HIV-1); assay: ELISA; remark: listed apart in the source
gp70 C.1086 V1/V2 [19] = molecular target: T2, gp70 C.1086 V1/V2; assay: ELISA
AE.A244 V1V2 Tags [20] = molecular target: AE.A244 V1V2 Tags (HIV-1); assay: ELISA; remark: listed apart in the source
[21] = molecular target: T3, gp70 B.CaseA2 V1/V2/V169K/E172V/E173H (HIV-1 V1V2 on murine leukemia virus gp70); assay: ELISA
T3 construct: also called gp70 B.CaseA2 V1/V2 Mut3
T3 chain: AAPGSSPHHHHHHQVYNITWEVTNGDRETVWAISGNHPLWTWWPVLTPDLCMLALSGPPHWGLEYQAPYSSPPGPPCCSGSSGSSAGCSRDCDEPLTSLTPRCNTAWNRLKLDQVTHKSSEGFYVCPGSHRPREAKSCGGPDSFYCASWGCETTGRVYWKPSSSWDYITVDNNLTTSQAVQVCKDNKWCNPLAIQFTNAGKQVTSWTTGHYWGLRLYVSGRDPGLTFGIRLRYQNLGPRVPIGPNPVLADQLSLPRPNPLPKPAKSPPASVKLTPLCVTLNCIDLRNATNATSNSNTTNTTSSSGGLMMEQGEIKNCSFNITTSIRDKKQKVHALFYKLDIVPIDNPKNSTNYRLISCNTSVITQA

[22] = molecular target: T4, gp70 B.CaseA2 V1/V2/V169K (HIV-1 V1V2 on murine leukemia virus gp70); assay: ELISA
T4 chain: T3 chain with V332E, H333Y

B1: CH59 (antibody, V domains shown)
VH: EVQLVESGGGLVQPGRSLRLSCAASGFTFDDGAMHWVRQAPGKGLEWVSGISWNSNIIAYADSVKGRFTISRDNAKNSLYLEMNSLRVEDTALYYCAKDSPRGELPLNYWGQGTLVTVSS
VL: SYELTQPPSVSVSPGQTARITCSGDALPKNYAYWYQQKSGQAPVLVIYEDSKRPSGIPERFSGSSSGTMATLTISGAQVEDEADYYCYSTDSSGNHRVFGGGTKLTVL
notes: also called mAb CH59
ID50 assayed in TZM-bl cells, TH023.6.I181L [1]: 5.33 µg/mL
ID50 assayed in TZM-bl cells, 703357.2.Q169K [2]: > 50 µg/mL
ID50 assayed in TZM-bl cells, 703357.c02 (Env of 703357.c02 virus): > 50 µg/mL
ID50 assayed in TZM-bl cells, 703357.2.Q169KR170Q [3]: > 50 µg/mL
ID50 assayed in TZM-bl cells, 703357.2.I181L [4]: > 50 µg/mL
ID50 assayed in TZM-bl cells, 427299.c12.H81L [5]: > 50 µg/mL
ID50 assayed in TZM-bl cells, CM244.ec1 (Env of AE.CM244 virus): > 50 µg/mL
ID50 assayed in TZM-bl cells, CM244NW.6.I181L [6]: > 50 µg/mL
ID50 assayed in TZM-bl cells, 427299.c12.Q169K [7]: > 50 µg/mL
ID50 assayed in TZM-bl cells, TH023.6.K169Q [8]: > 50 µg/mL
ID50 assayed in TZM-bl cells, 427299.c12 (Env of 427299.c12 virus): > 50 µg/mL
ID50 assayed in TZM-bl cells, 703357.2.Q169KR170QI181L [9]: > 50 µg/mL
ID50 assayed in TZM-bl cells, 703357.2.Q169KI181L [10]: > 50 µg/mL
ID50 assayed in TZM-bl cells, 427299.c12.KL.Q169K/I181L [11]: > 50 µg/mL
ID50 assayed in TZM-bl cells, CM244NW.4.K169Q [12]: > 50 µg/mL
ID50 assayed in TZM-bl cells, TH023.6 (Env of AE.92TH023 virus): 1.92 µg/mL
EC50 (C.CAP206 gp140CF.12): > 667 nM
EC50 (AE.A244 gp120 delta 11 [13]): 0.087 nM
EC50 (C.1086 V1V2 Tags [14]): 0.1 nM
EC50 (gp70 C.1086 V1/V2 [15]): 0.067 nM
EC50 (AE.A244 V1V2 Tags [16]): 0.014 nM
EC50 (AE.A244 gp120 delta 11 [17]): 0.087 nM
EC50 (C.1086 V1V2 Tags [18]): 0.1 nM
EC50 (gp70 C.1086 V1/V2 [19]): 0.067 nM
EC50 (AE.A244 V1V2 Tags [20]): 0.014 nM
EC50 [21]: 0.02 µg/mL
binding result [22]: no binding

Reference: patent US9988424 (DUKE UNIVERSITY, dated 2018)
